Assay results taken from patent US20200292534A1 (published 2020).
Like-named read-outs stand apart in the source and are kept apart here.

T1: NLpoly11S
T1 chain: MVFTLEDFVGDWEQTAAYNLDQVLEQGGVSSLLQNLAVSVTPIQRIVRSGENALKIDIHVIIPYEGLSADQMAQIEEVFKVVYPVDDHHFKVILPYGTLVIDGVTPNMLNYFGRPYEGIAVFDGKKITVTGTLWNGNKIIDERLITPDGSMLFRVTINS


What was measured:
Assay in all cases: luminescence complementation titration, one-site specific binding
[1] = target: T1, NLpoly11S
[2] = target: T1, NLpoly11S
[3] = target: T1, NLpoly11S

Binder | Kd [1] [nM] | Kd [2] [nM] | Kd [3] [nM]
VTGYRLFEEIL [NLpep114] | 199000 |  | 
NVSGWRLFKKISN (other) [HaloTag-NLPep78] |  | 7.21 | 
MNVTGYRLFKKISN (other) [NLpep79-HaloTag] |  |  | 22.9
MNVSGWRLFKKISN (other) [NLpep78-HaloTag] |  | 30.2 | 
NVTGYRLFKKISN (other) [HaloTag-NLPep79] |  |  | 33.9
GVTGWRLCERILA [NLpep1] | 2460 |  | 
